# According to IntAct's records for PubMed 25910212:
# B1: Mothers against decapentaplegic homolog 3 (Homo sapiens), P84022 (parent)
# chain: MSSILPFTPPIVKRLLGWKKGEQNGQEEKWCEKAVKSLVKKLKKTGQLDELEKAITTQNVNTKCITIPRSLDGRLQVSHRKGLPHVIYCRLWRWPDLHSHHELRAMELCEFAFNMKKDEVCVNPYHYQRVETPVLPPVLVPRHTEIPAEFPPLDDYSHSIPENTNFPAGIEPQSNIPETPPPGYLSEDGETSDHQMNHSMDAGSPNLSPNPMSPAHNNLDLQPVTYCEPAFWCSISYYELNQRVGETFHASQPSMTVDGFTDPSNSERFCLGLLSNVNRNAAVELTRRHIGRGVRLYYIGGEVFAECLSDSAIFVQSPNCNQRYGWHPATVCKIPPGCNLKIFNNQEFAALLAQSVNQGFEAVYQLTRMCTIRMSFVKGWGAEYRRQTVTSTPCWIELHLNGPLQWLDKVLTQMGSPSIRCSSVS
# partner: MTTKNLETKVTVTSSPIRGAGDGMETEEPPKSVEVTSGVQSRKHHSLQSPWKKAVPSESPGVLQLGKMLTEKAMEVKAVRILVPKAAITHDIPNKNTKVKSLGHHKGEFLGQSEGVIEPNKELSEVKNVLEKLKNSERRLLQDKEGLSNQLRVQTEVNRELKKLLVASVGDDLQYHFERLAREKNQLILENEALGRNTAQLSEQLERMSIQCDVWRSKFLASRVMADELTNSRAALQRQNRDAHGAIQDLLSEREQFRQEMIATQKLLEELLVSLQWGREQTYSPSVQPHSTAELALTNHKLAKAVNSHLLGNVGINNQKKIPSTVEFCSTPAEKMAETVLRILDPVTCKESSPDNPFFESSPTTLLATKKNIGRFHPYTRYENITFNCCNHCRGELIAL
# B2: Myozenin-2 (Homo sapiens), Q9NPC6 (parent)
# chain: MLSHNTMMKQRKQQATAIMKEVHGNDVDGMDLGKKVSIPRDIMLEELSHLSNRGARLFKMRQRRSDKYTFENFQYQSRAQINHSIAMQNGKVDGSNLEGGSQQAPLTPPNTPDPRSPPNPDNIAPGYSGPLKEIPPEKFNTTAVPKYYQSPWEQAISNDPELLEALYPKLFKPEGKAELPDYRSFNRVATPFGGFEKASRMVKFKVPDFELLLLTDPRFMSFVNPLSGRRSFNRTPKGWISENIPIVITTEPTDDTTVPESEDL
# B3: ATP synthase mitochondrial F1 complex assembly factor 2 (Homo sapiens), Q8N5M1 (parent)
# chain: MWRSCLRLRDGGRRLLNRPAGGPSASMSPGPTIPSPARAYAPPTERKRFYQNVSITQGEGGFEINLDHRKLKTPQAKLFTVPSEALAIAVATEWDSQQDTIKYYTMHLTTLCNTSLDNPTQRNKDQLIRAAVKFLDTDTICYRVEEPETLVELQRNEWDPIIEWAEKRYGVEISSSTSIMGPSIPAKTREVLVSHLASYNTWALQGIEFVAAQLKSMVLTLGLIDLRLTVEQAVLLSRLEEEYQIQKWGNIEWAHDYELQELRARTAAGTLFIHLCSESTTVKHKLLKE
# partner: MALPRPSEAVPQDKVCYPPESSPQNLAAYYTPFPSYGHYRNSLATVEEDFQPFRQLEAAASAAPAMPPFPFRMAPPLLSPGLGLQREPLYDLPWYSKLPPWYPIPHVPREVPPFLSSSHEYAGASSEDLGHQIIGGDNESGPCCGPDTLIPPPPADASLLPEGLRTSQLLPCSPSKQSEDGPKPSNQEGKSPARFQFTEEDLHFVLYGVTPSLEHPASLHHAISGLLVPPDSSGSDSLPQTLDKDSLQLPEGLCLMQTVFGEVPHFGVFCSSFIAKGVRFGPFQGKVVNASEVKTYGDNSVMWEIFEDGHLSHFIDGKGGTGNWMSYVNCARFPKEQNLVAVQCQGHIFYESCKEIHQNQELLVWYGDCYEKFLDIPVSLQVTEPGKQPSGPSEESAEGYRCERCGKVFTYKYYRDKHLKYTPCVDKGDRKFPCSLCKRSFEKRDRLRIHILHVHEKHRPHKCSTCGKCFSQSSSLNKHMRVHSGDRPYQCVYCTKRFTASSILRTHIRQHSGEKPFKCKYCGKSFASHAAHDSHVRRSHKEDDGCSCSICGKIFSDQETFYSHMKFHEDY
# B4: DNA mismatch repair protein Mlh1 (Homo sapiens), P40692 (parent)
# chain: MSFVAGVIRRLDETVVNRIAAGEVIQRPANAIKEMIENCLDAKSTSIQVIVKEGGLKLIQIQDNGTGIRKEDLDIVCERFTTSKLQSFEDLASISTYGFRGEALASISHVAHVTITTKTADGKCAYRASYSDGKLKAPPKPCAGNQGTQITVEDLFYNIATRRKALKNPSEEYGKILEVVGRYSVHNAGISFSVKKQGETVADVRTLPNASTVDNIRSIFGNAVSRELIEIGCEDKTLAFKMNGYISNANYSVKKCIFLLFINHRLVESTSLRKAIETVYAAYLPKNTHPFLYLSLEISPQNVDVNVHPTKHEVHFLHEESILERVQQHIESKLLGSNSSRMYFTQTLLPGLAGPSGEMVKSTTSLTSSSTSGSSDKVYAHQMVRTDSREQKLDAFLQPLSKPLSSQPQAIVTEDKTDISSGRARQQDEEMLELPAPAEVAAKNQSLEGDTTKGTSEMSEKRGPTSSNPRKRHREDSDVEMVEDDSRKEMTAACTPRRRIINLTSVLSLQEEINEQGHEVLREMLHNHSFVGCVNPQWALAQHQTKLYLLNTTKLSEELFYQILIYDFANFGVLRLSEPAPLFDLAMLALDSPESGWTEEDGPKEGLAEYIVEFLKKKAEMLADYFSLEIDEEGNLIGLPLLIDNYVPPLEGLPIFILRLATEVNWDEEKECFESLSKECAMFYSIRKQYISEESTLSGQQSEVPGSIPNSWKWTVEHIVYKALRSHILPPKHFTEDGNILQLANLPDLYKVFERC
# partner: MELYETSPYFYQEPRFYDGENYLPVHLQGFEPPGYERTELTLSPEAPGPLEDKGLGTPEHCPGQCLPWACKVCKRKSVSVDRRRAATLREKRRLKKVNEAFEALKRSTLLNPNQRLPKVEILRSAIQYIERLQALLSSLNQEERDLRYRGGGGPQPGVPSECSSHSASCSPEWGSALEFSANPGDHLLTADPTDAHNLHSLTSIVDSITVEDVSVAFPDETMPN
# B5: Neurogenin-3 (Homo sapiens), Q9Y4Z2 (parent)
# chain: MTPQPSGAPTVQVTRETERSFPRASEDEVTCPTSAPPSPTRTRGNCAEAEEGGCRGAPRKLRARRGGRSRPKSELALSKQRRSRRKKANDRERNRMHNLNSALDALRGVLPTFPDDAKLTKIETLRFAHNYIWALTQTLRIADHSLYALEPPAPHCGELGSPGGSPGDWGSLYSPVSQAGSLSPAASLEERPGLLGATFSACLSPGSLAFSDFL
# B6: Beta-crystallin B1 (Homo sapiens), P53674 (parent)
# chain: MSQAAKASASATVAVNPGPDTKGKGAPPAGTSPSPGTTLAPTTVPITSAKAAELPPGNYRLVVFELENFQGRRAEFSGECSNLADRGFDRVRSIIVSAGPWVAFEQSNFRGEMFILEKGEYPRWNTWSSSYRSDRLMSFRPIKMDAQEHKISLFEGANFKGNTIEIQGDDAPSLWVYGFSDRVGSVKVSSGTWVGYQYPGYRGYQYLLEPGDFRHWNEWGAFQPQMQSLRRLRDKQWHLEGSFPVLATEPPK
# partner: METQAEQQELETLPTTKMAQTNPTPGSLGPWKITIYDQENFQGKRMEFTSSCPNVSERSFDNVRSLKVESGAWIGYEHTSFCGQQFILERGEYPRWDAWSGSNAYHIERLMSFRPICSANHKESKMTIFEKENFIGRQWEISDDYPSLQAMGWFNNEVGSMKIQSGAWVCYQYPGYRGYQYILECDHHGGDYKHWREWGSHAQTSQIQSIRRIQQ
# B7: U4/U6 small nuclear ribonucleoprotein Prp31 (Homo sapiens), Q8WWY3 (parent)
# chain: MSLADELLADLEEAAEEEEGGSYGEEEEEPAIEDVQEETQLDLSGDSVKTIAKLWDSKMFAEIMMKIEEYISKQAKASEVMGPVEAAPEYRVIVDANNLTVEIENELNIIHKFIRDKYSKRFPELESLVPNALDYIRTVKELGNSLDKCKNNENLQQILTNATIMVVSVTASTTQGQQLSEEELERLEEACDMALELNASKHRIYEYVESRMSFIAPNLSIIIGASTAAKIMGVAGGLTNLSKMPACNIMLLGAQRKTLSGFSSTSVLPHTGYIYHSDIVQSLPPDLRRKAARLVAAKCTLAARVDSFHESTEGKVGYELKDEIERKFDKWQEPPPVKQVKPLPAPLDGQRKKRGGRRYRKMKERLGLTEIRKQANRMSFGEIEEDAYQEDLGFSLGHLGKSGSGRVRQTQVNEATKARISKTLQRTLQKQSVVYGGKSTIRDRSSGTASSVAFTPLQGLEIVNPQAAEKKVAEANQKYFSSMAEFLKVKGEKSGLMST
# partner: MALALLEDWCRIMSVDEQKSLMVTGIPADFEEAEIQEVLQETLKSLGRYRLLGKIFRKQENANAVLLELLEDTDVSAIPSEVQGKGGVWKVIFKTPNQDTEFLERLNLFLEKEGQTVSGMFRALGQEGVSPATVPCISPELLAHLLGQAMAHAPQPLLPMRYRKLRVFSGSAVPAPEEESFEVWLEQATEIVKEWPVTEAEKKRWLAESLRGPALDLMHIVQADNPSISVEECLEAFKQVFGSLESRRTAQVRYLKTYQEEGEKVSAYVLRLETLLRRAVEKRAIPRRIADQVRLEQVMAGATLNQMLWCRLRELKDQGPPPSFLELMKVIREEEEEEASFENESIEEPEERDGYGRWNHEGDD
# B8: Keratin, type I cytoskeletal 18 (Homo sapiens), P05783 (parent)
# chain: MSFTTRSTFSTNYRSLGSVQAPSYGARPVSSAASVYAGAGGSGSRISVSRSTSFRGGMGSGGLATGIAGGLAGMGGIQNEKETMQSLNDRLASYLDRVRSLETENRRLESKIREHLEKKGPQVRDWSHYFKIIEDLRAQIFANTVDNARIVLQIDNARLAADDFRVKYETELAMRQSVENDIHGLRKVIDDTNITRLQLETEIEALKEELLFMKKNHEEEVKGLQAQIASSGLTVEVDAPKSQDLAKIMADIRAQYDELARKNREELDKYWSQQIEESTTVVTTQSAEVGAAETTLTELRRTVQSLEIDLDSMRNLKASLENSLREVEARYALQMEQLNGILLHLESELAQTRAEGQRQAQEYEALLNIKVKLEAEIATYRRLLEDGEDFNLGDALDSSNSMQTIQKTTTRRIVDGKVVSETNDTKVLRH
# Variants of: B1
# Conditions: with go45_human BLZF1, Q9H2G9
row,effect of a mutation on the interaction,Variant
1,with no effect,N197I

# Variants of: B2
# Conditions: with actn2_human ACTN2, P35609
# actn2_human ACTN2, P35609, sequence (P35609 whole entry): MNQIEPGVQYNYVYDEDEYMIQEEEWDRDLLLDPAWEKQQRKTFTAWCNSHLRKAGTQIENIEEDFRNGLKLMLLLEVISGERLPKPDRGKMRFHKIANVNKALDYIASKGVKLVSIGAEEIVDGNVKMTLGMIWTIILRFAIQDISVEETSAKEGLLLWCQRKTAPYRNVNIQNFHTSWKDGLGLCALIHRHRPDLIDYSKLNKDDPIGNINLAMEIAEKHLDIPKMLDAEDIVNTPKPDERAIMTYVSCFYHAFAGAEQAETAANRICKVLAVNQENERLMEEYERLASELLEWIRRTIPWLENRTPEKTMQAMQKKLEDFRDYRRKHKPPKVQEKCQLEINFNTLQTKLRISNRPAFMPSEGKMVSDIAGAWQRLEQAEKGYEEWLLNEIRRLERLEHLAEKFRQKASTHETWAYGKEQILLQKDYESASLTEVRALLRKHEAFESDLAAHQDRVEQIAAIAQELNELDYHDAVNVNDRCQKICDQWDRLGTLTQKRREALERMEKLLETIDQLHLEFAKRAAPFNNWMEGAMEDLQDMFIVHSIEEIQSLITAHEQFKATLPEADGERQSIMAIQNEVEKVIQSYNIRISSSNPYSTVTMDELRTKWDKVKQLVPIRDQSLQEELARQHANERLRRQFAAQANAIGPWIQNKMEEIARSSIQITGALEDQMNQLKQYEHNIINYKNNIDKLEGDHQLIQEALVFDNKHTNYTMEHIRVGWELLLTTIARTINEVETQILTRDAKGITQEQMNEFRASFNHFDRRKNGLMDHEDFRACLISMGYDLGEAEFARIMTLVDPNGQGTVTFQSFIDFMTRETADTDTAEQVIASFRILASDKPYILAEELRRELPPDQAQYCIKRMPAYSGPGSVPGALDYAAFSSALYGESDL
row,effect of a mutation on the interaction,Variant
1,with no effect,I246M
2,with no effect,S48P
3,with no effect,Q10P

# Variants of: B2
# Conditions: with actn1_human ACTN1, P12814
# actn1_human ACTN1, P12814, sequence (P12814 whole entry): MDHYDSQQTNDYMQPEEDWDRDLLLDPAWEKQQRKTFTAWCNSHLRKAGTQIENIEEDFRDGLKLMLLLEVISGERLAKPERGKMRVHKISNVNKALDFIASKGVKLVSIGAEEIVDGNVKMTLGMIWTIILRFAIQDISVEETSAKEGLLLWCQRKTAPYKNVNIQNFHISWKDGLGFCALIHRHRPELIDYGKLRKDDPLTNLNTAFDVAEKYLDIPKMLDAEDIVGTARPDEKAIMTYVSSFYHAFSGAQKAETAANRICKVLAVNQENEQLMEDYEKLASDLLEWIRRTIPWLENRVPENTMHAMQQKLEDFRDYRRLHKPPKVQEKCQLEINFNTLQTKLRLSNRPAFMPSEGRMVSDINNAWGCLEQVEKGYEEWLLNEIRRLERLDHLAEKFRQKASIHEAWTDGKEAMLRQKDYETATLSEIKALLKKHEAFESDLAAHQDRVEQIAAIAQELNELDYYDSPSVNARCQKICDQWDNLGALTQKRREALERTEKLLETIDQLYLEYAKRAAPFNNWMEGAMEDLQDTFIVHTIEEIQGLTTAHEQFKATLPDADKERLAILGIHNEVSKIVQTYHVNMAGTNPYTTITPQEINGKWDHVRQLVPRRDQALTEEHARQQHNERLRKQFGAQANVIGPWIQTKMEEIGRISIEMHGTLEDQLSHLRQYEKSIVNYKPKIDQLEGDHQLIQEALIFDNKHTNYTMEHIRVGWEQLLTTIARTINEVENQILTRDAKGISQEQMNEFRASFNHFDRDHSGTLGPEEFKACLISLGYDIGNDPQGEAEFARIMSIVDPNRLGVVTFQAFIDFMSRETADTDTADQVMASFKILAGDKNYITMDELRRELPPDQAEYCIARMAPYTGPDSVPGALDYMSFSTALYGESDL
row,effect of a mutation on the interaction,Variant
1,with no effect,I246M
2,with no effect,S48P
3,with no effect,Q10P

# Variants of: B2
# Conditions: with actn4_human ACTN4, O43707
# actn4_human ACTN4, O43707, sequence (O43707 whole entry): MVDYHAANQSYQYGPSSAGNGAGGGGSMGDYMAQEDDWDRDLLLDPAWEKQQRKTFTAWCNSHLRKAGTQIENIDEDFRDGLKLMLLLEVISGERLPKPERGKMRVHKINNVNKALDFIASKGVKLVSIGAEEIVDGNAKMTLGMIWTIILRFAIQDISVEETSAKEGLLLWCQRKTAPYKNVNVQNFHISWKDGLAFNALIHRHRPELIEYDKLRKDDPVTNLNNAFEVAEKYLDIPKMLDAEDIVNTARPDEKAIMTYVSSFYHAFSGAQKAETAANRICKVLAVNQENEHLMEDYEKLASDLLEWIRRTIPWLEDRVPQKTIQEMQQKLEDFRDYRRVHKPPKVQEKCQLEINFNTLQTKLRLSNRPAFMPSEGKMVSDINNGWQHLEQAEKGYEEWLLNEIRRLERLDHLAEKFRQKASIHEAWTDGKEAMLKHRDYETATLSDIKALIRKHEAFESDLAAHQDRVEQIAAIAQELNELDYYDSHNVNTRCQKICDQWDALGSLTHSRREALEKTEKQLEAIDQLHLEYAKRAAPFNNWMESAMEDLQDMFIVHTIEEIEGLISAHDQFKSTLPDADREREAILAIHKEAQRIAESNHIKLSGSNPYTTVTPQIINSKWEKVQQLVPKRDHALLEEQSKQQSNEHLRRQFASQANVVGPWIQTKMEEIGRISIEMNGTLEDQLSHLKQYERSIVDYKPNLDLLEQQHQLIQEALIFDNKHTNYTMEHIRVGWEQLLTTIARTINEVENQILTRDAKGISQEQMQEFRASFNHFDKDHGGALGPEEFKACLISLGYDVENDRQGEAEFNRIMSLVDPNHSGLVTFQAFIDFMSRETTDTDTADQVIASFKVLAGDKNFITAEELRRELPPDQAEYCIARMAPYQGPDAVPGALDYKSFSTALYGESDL
row,effect of a mutation on the interaction,Variant
1,with no effect,I246M
2,with no effect,S48P
3,with no effect,Q10P

# Variants of: B3
# Conditions: with prd14_human PRDM14, Q9GZV8
row,effect of a mutation on the interaction,Variant
1,disrupting interaction strength,W94R

# Variants of: B4
# Conditions: with myog_human MYOG
row,effect of a mutation on the interaction,Variant
1,with no effect,R472I
2,disrupting interaction strength,G244D

# Variants of: B5
# Conditions: with TCF12, Q99081-3
# TCF12, Q99081-3, sequence (Q99081 other isoform, or with tags, fused parts or gaps): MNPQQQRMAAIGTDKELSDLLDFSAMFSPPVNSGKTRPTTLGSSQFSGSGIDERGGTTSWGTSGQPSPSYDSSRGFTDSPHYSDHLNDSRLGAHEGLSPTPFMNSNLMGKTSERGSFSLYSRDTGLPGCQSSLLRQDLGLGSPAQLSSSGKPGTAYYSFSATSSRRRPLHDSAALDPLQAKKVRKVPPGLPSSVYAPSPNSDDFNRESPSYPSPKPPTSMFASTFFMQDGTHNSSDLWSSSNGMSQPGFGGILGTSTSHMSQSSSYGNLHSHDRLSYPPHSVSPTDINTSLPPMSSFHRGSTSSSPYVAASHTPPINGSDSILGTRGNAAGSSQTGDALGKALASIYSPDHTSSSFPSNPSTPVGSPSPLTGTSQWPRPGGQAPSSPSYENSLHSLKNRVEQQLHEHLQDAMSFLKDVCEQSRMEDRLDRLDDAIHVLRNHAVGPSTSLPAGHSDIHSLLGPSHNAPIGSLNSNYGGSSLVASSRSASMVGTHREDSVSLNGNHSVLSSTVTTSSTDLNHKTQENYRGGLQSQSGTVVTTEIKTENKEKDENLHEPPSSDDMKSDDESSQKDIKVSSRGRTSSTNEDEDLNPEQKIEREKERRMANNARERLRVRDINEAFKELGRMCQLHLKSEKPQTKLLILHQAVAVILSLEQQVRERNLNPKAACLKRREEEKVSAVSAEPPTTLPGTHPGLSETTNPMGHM
row,effect of a mutation on the interaction,Variant
1,disrupting interaction strength,G167R
2,disrupting interaction strength,F199S

# Variants of: B6
# Conditions: with crba1_human CRYBA1, P05813
row,effect of a mutation on the interaction,Variant
1,disrupting interaction strength,S228P

# Variants of: B7
# Conditions: with pnma2_human PNMA2, Q9UL42
row,effect of a mutation on the interaction,Variant
1,with no effect,L107V

# Variants of: B8
# Conditions: with goga2_human GOLGA2, Q08379
# goga2_human GOLGA2, Q08379, sequence (Q08379 whole entry): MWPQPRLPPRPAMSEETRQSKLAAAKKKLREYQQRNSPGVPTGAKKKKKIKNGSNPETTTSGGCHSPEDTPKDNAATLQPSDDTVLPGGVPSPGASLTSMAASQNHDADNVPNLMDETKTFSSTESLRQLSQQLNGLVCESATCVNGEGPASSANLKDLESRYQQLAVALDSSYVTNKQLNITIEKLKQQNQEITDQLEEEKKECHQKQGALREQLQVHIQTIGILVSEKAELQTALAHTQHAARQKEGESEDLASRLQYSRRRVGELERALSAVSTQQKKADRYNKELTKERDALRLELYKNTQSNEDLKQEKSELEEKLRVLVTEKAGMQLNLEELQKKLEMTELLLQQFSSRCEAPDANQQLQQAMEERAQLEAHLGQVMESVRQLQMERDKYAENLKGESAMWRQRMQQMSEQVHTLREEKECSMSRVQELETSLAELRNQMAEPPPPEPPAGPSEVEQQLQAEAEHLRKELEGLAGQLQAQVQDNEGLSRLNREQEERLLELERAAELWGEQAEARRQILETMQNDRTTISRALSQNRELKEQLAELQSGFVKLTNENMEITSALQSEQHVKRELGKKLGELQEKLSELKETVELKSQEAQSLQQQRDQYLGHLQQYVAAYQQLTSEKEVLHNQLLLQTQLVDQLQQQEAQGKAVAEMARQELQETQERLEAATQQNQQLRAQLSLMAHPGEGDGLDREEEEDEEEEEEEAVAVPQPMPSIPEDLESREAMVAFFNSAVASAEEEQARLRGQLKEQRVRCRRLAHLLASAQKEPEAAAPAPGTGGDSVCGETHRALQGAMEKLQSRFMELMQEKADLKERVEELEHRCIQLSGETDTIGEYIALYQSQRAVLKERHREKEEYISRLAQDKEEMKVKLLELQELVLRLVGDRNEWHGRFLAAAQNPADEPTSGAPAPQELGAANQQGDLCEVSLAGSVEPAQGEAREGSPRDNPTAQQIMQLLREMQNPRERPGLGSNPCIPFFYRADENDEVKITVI
row,effect of a mutation on the interaction,Variant
1,disrupting interaction strength,G340R

# Variants of: B8
# Conditions: with hgs_human HGS
row,effect of a mutation on the interaction,Variant
1,disrupting interaction strength,G340R

# Variants of: B8
# Conditions: with syce1_human SYCE1, Q8N0S2
# syce1_human SYCE1, Q8N0S2, sequence (Q8N0S2 whole entry): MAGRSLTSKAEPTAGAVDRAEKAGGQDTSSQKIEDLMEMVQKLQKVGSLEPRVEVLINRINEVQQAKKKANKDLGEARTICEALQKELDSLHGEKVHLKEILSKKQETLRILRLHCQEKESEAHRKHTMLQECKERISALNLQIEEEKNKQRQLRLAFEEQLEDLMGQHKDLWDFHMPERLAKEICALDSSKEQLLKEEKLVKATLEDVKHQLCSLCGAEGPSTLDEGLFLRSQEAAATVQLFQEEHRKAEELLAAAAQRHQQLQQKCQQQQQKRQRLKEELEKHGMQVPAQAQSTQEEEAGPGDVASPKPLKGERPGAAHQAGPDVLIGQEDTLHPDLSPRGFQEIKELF
row,effect of a mutation on the interaction,Variant
1,with no effect,G340R
